Assay results: publication PMC6368398

Legend:
[1] = biological target: RPA-wt (RPA70-RPA32-RPA14 heterotrimer) (Saccharomyces cerevisiae, UniProt P22336;P26754;P26755 1-621;1-273;1-122); assay: FRET
scRad52 = scRad52 (Saccharomyces cerevisiae, UniProt P06778 1-471); assay: FRET
Chain of scRad52 (P06778 whole entry): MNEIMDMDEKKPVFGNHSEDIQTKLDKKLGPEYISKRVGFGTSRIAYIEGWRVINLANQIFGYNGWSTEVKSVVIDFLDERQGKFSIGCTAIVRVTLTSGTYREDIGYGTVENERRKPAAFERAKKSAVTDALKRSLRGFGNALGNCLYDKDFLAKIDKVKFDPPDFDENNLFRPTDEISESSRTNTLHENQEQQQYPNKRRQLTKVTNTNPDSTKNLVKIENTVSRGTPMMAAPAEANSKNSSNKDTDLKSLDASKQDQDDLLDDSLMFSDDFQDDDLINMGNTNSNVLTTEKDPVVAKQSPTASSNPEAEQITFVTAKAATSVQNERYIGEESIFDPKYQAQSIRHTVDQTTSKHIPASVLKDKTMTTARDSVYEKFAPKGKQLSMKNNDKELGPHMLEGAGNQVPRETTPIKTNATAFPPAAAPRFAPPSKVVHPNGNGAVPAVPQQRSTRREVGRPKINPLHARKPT

Chain of RPA-wt (RPA70-RPA32-RPA14 heterotrimer) (P22336 whole entry, chain 1 of 3): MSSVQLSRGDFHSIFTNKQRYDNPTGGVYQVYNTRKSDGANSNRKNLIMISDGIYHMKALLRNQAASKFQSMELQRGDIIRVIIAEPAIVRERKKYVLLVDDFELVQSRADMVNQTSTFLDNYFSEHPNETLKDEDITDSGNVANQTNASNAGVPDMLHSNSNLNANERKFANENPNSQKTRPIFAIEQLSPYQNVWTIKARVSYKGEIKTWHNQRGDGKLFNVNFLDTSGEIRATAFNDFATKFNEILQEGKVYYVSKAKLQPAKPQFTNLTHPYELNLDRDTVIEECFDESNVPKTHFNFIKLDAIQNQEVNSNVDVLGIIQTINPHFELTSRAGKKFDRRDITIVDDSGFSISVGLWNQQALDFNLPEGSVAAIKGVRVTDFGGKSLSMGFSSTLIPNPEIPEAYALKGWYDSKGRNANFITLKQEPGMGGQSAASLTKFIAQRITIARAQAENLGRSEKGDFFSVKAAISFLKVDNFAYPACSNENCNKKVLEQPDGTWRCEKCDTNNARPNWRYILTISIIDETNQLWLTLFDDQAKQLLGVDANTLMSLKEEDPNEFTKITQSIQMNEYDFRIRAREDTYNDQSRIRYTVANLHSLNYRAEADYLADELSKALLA
Chain of RPA-wt (RPA70-RPA32-RPA14 heterotrimer) (P26754 whole entry, chain 2 of 3): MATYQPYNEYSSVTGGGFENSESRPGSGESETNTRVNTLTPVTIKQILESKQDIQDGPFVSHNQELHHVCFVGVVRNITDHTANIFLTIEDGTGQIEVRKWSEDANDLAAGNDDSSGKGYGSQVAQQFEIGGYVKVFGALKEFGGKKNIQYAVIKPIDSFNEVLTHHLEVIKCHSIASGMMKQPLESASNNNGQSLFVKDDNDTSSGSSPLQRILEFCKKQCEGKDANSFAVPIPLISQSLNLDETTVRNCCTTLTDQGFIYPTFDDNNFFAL
Chain of RPA-wt (RPA70-RPA32-RPA14 heterotrimer) (P26755 whole entry, chain 3 of 3): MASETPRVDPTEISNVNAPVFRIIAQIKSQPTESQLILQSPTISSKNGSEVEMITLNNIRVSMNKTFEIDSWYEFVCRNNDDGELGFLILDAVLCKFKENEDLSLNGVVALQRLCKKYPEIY

TTTTTTTTTTTTTTTTTTTTTTTTTTTTTT (ssDNA) [Cy3-dT30-Cy5]: binds [1]; binds (scRad52).
